Source: patent US20190024095A1

Target: CD19 on Raji B cells (UniProt P15391)
Assay: cell-based or functional assay

UniProt P15391, sequence (P15391 20-556 limits assumed): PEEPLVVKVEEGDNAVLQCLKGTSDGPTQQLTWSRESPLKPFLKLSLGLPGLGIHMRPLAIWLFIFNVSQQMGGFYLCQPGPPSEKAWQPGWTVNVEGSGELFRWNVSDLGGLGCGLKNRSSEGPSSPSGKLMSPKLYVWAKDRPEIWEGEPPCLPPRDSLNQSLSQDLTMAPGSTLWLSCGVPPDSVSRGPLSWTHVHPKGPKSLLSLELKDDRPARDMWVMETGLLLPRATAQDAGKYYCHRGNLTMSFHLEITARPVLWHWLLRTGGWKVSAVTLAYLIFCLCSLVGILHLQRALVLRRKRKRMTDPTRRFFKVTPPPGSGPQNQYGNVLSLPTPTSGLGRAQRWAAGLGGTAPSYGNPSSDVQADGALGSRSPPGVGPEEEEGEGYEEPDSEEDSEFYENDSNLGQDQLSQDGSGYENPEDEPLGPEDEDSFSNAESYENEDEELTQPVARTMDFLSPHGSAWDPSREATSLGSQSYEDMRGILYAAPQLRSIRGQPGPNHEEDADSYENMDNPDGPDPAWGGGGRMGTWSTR

change in IL-12 expression (NFAT promoter, 3'-UTR not responsive to CAR stimulation): 50 fold
change in IL-12 expression (NFAT promoter, RDE1 (Gold1)): 168 fold
change in IL-12 expression (minP promoter, RDE1 (Gold1)): 6.3 fold
change in activated cells in the population (CD25, CD69; GFP-RDE1 bicistronic construct): 0.9 to 84.8%
change in activated cells in the population (CD25, CD69; GFP-RDE2.1 bicistronic construct): 3.9 to 12.1%
change in activated cells in the population (CD25, CD69; doubly transduced T-cells): 0.9 to 56.9%
change in activated cells in the population (CD25, CD69; singly transduced, bicistronic construct): 3.6 to 5.8%
increase in bioluminescence (MinP promoter, RDE1): 4.1 fold
increase in bioluminescence (MinP promoter, RDE2): 1.8 fold
increase in bioluminescence (MinP promoter, RDE3): 1.4 fold
increase in bioluminescence (NFAT promoter, RDE1): 8.5 fold
increase in bioluminescence (NFAT promoter, RDE2): 3.1 fold
increase in bioluminescence (NFAT promoter, RDE3): 1.3 fold
increase in fluorescence (GFP-RDE1): 6.5%
increase in fluorescence (GFP-RDE2, doubly transduced T-cells): 19.5 to 42.5%
Substance: anti-CD19 CAR (anti-CD19 CAR cassette as described in WO 2012/079000), expressed on transduced T-cells
